# Experimental data from the supplement of paper PMC12636428.
# System: Saccharomyces cerevisiae
# Assay: transcriptional activation domain activity (GFP:mCherry ratio, weighted mean of sorted bins, harmonized to initial dataset scale) (arbitrary fluorescence ratio units); higher = stronger transcriptional activation
# Settings: beta-estradiol 1 µM; induction time 4 h
# Method in brief: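 For this assay, yeast diploids with a GFP reporter carried barcoded protein tiles at URA3, each fused to an estradiol-inducible synthetic transcription factor. Induction was a 1:5 dilution into SC with 1 uM beta-estradiol for 4 hours at 30 °C, followed by sorting into 8 bins by GFP:mCherry ratio and barcode sequencing. Tiles under 50 reads were dropped, and activation activity was calculated as the read-weighted mean of bin median fluorescence, averaged across barcodes and linearly mapped onto the initial dataset scale.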
row,Sequence,transcriptional activation domain activity
1,AAAAGVPIASDESETEVEEEGSSSADIGQAATTGRGRSPPKQQQQQQSVAAVS,38500
2,NIFVLHWLPSLSIASLFHTSSSSSPLLAQFFALFRSFFLSIFLFSIVYILLLF,72200
3,PFFSLDNIMATFDTSTGKLRIWGIRAKPRFVWFCSKEHLLPCMNVKMIRYNSI,64600
4,MFLPFSLSINHLPSLLLQPFILSLILLLFFLCLLHRLFPFLLQFFPFLFQFLS,50100
5,LGLDSGYLWSGILYNVSVTVSLYSLGMFWVCMSKDLQPFRPVPKFLCIKLIIF,62400
6,MFLPIVPFMLMLLRLLRLLRLLMLLMLLMLLPLFLFLFLLVMLCLFPLILLLL,56200
7,GGGGGVGGEKGEEGGGEEEEDEEEEEEEGEEDEEEEGGGAAAKEKGKGKGKGK,8640
8,SRLHARIEYEESSEQFVLAVLGRNGAWVDGVWSGSGSRVPLSSRSQIQIASRV,52800
9,FIDAAGKGGELRWNPHNKRYHLVGAEEGGKEDALSAPNKPTKPNPVLVCIYGQ,69000
10,FRYLSYSKWLILALYINSWAYVVLSMLLVYVVSASRKGRWRSASYRFHMILLS,64100
11,IRLELGIIEDFFGLTLCMSKYLLYHYVISLKLSACFFAVHGYAPNGLDYPWVL,55000
12,AVLWNPCICFKSPLVFRFCLSVLLAYLSLPFIPFVFLYYCFLFFVLWFIHSSY,31700
13,VYIYAKTISIVLLTDIYIGKYTYILISLKLLARKKFYNILTNPIFCAHIRLVI,55300
14,TARVSEAKPARGRPSSAKAESPAVEAAPAVKKRGRGRPSKTKPETEEEEEAVP,39600
15,MILWARAWISLFLFLYLLFYLFVFSLDIPPFLLYTFFIFILLLCVFACTYRHK,49200
16,GDAHAAPKGRKGGGKKRKAADEDGEEEGEAEKPAKKAGKRGKKGKATPTQEEG,12100
17,MGVLFFSFLPWSFRLFFSFFFYFGLFFFFEYDFVLFLVFCVLVIGPVWLLAGC,60200
18,MPRLCCSCCYTDSLYFMIIRDRFFWLLHNGIVVVSLISYIRCMMISSPLLVGH,48400
19,MVVFLYLVIYHWSKVNRVSFRCAAFCCIAHLIENVFFVIMVKVKGPSKFCAGI,76900
20,PSDSRSRSRSRSASRKRGGAGRGGRSDSSDSEGDNSRRRQVSPARRRQRPARG,38300
21,AGIRLLERAWYWLHGRYRFTAGYVAELLLNGFKRPHGLLNAYVHHFTNFNITD,72000

row,Sequence,transcriptional activation domain activity
1,LRGGYTCQLNGTPKNPDLQVWLQLNLIAYFSFLDTRACDGKTASITGSAEMPF,51900
2,MAEKRATSTAPGPSTSLQRGKACLRCRKRKMRCDGSKPACQQCVRAKKADGCE,21500
3,DRNYKRVAKQVGFTIDRKRGDDLRHFPIERARLEIIWPLLYTGLACILCYGWA,70900
4,PTCALLSLQPVLPSPFGPPSSLLPVTSLFYLSPPSLLCILALSSFLLILPLLF,38800
5,ILHCFIIPLLFLVGFLSFLSLPCLLAVAFLIFMSILNLLLLGFLLLLWILLFF,41200
6,KPATTTASSAQPSTTASATPGGLFGGGAQSGSSTPAGGLFGAKPAAAPSPAPA,44900
7,LVLRSVILSLMVFLVIFCSEYFLFPFCHSICCYGYIYILIDSWVSFSLLVFFS,65700
8,DGVTNTPVELGVAKEGGNLEVVNSRTALVVSKHWILLIGLLGRYGMRKDKGVL,49400
9,VAEDLFERVRLDWLILFDLRMWKKVRCDLRSLYISTVVTIPEFKRVLGLRFAG,37300
10,AILLGEAYGYRILPFVPVWTIFATVNLAYAVCSTSWLLYWVYLVCCWPTLLIV,55500
11,FLMVLCLFCIVYLFFSCFPFFAMSYVLLLLFCFYCILFYFSCPFCFVICNSVV,54000
12,IMYIICLTIAPSFLCGVLYVSLSRFIAALGHQYSLVPPWLISWVFIFGDFLSL,62600
13,LSLLLQDRPRFIFGFSFLLLKSIWCIGFYFINSRLKCMCILYILLIDILYFTF,49800
14,SSNFQTIDNENNVKTPGNKLTDFFQQQSAGWIEGNSSNDDFFGWFDMNMEQGF,133000
15,MAAIDHDKVAKFVGGNSLDKATPGDVTDFVRKNGGHTVITKVLIANNGIAAVK,45000
16,SEPTAGNEGKEETSAPKKEESKPAESEKKAEEPKQEQPKKEEKKAEGKPASGS,31400
17,MILHSSYLPLGVPPFSIYYILHTLGHSINKITKLLLSNLILRFLNCCTQLIVR,53400
18,MITYILRLGFDYLPPLALWIAIVLVHYTYVCCFLVVACENTCRWHMVQFNLRH,73300
19,FLRRVFQNHPEVMFKPGPFYMGDGIIGLGANWICICWTLFVCVLLSFPTILPV,66700
20,IVFLLRVLIRCLPTLTQILDFELVSAELSLAELPDTQFKLKELGVSTKVVFTQ,45800
21,SASASAAPAASTAGSADKSGGAQEKHRGGRRRGGRGRGDKESGGKEGGSKNTE,34400

row,Sequence,transcriptional activation domain activity
1,MSSWDGTQGSSSNGQVRKRRRIALACDSCRARKSRCDGRRPQCSSCAGQGTKC,43400
2,DLPVRLVELPNLLVTDIQQNAYLLDSALRVKLDAKGRAFLDSILLRVLQWLWT,48200
3,QCYNYLRVILMVSVGQGLARSVHWCMFLYQQGLDYVLWYYRNTLLLVSFLIGW,62200
4,NTMQFSMNLGNSTVSGPFSGLVNGLTPKGTNMEPSLWASWSYYALWLPTWGTT,52100
5,GNESDDESTEEEKEVKRKKKKKVAKKLPKKKAKKAAVKAKSKKSKKADSSDES,31000
6,SSSKSKPIPDAKKRKSSASKPKSASSADRDTKRSGSRPESGKKSSTSSRSSKS,22900
7,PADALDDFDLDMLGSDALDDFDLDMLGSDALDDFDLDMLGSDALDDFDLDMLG,152000
8,LAKARCGCCFQIGSLVELIKLCLLIMLLVVIYFVTVQALIAVLVSSKLCILVP,43800
9,DTCTKVHGRVFSREVHHIRFNRITTSTIVALRVASEVGAIWMLPMIYYTIVCW,24200
10,APSPTPDDDADMKKKDGDGKKDGEDGKKKMKMVTALKNCSFTVPAGTTAALVG,39400
11,ILGKLLYHMILLYLCVDLSLSEQIEHLSAATHLTMILYRLGGKDFIPTNLYIN,45000
12,IVFLFLCFAGFWMCVVCLLLLLYTAVPLIPPHSSSSFDSFGLFMLLLVSCMRF,48000
13,VVVILRMWAFCYRGSGHAHEMLHLLHNLICVWTKEFQYIVLQNWLANPQGKPK,58500
14,SSLSSSSFIKSHPGPDPFQQLSSAEHPNNHSSDDEHSGSQPLPLDSITIGIPP,53200
15,CDAPKLGLSGATLFEMIRFLDLYQGDWDSFLSQILVHAQIIRVLREALLILTV,65300
16,LVVCCLASQVFIDSILLLPVKIVPPFYRLLSGVVNLVICRLTLFFLGFWWIPV,59500
17,MYCVSFSHFYPPPLSFFHYGFDIFLFIFLIFFFCCPFLFAQVVVGYAICWYHT,51300
18,RQNEKTETGKAEARTRRETGARKEHAKSGDRNAKENRNGERKQREHEKDKDGG,26000
19,AAPAAADPTPKKRGRPPRVSGAAEVAAAPEPAAEQPKKGRGRKAAEPAPEPVV,23100
20,TVKEEEEEVKAKPAAAKVSRVRKAAAAKAQSEPEKDVAGPAPKTRAARTRAAS,48100
21,APTLNYELARKFIENSEDALHNSETMDLLGTLSHGNDFALEYNFDFTLLNEID,121000

row,Sequence,transcriptional activation domain activity
1,DHFDAPEPWSMFWYDPALDGTWWDQLPLDHFFPSELGAWASARSSWTDLTGSY,155000
2,PHTYNVILFLVIHDPEADVINRVKAYVTYVLRTMPKQLRLESFEMVFIRVLHL,54600
3,ISLGDFIVTLNYLFCYFLMQAPSLKLKPTSLFFFFLCIWLDFVLCLLILLRVA,46400
4,MDKLVQYEHTFLPPPHMQYLSYFDCLENLAHYIDAIHPNNLNMWFFLIYDQCI,63300
5,GVVWCGVIFGFVAFHILCLFDVFFSFFFFFFEFWFWFFGFVYLNGLGWVGVGW,40100
6,CRESRGNRGTGEGGAGEQGKGEQGKGEQGKGEQGNRGRGSRETGEGGAGKQGN,29800
7,CKSFITVLMDLPHFTTSCVWVFFFSSFCFLWENASLLYRRLILSFFSFSFLFP,66000
8,MLLHLLPILCPDCIFSASITFAVLSFLLSPCPLLPFSLLPLLCFFISIILRSV,42100
9,FQFPIDFTNDFSDGFSLDADIGQFMDPLLLTSFLPSPIPFDDGTELSSLELLH,167000
10,MGTLLLVFMHYGWTFFLDCCLWWYMMSLGFWYKVCLPLLLLDFHVYCHLWYMI,53600
11,VKEGGKDLVQLPKSWVEIDGEILVRAVLLLLHPGATLYGPVPMKIARNWPFAS,60700
12,MMELEGWDGGPYIWVDLVILFWLFVILLDWFFLLAIFSTVRGSPGLVGVFFFF,52100
13,ENAGNENAVDVENAGNENTAPEAKGKKNKGNAAANENAAGNAQAGEAGQVAAN,47200
14,QRNPGSRAVIVKPILHVYLEGAPGSLTTRNDSVVGLLVVQLSISLANALAMKA,22900
15,SKGNSINTFLEQVTFQVVPMLIDLCVAIGYFLVAFDAYYALVVAIVTFCYLYV,44100
16,DEVMKIMPVQKQTRAGQRTRFKAFVVIGDSEGHVGLGVKCAKEVATAIRGAII,59300
17,SVSRLHAKIEYEEEEERFVLVVVGRNGAWVDGVWSGAGSRVPLCERSQIQIAS,45800
18,NLMLQVVSPRIWFPSMQLIWGVLTFWWVAMPCRRIFITHILDHGIQIYAIRFF,61400
19,ARLRALEIIRAGHEGGYDGFFWGAWIPGLFHGKMTDIIALLLTHWGNVRNPAS,65700
20,KILVQAFKAVFTSPSSAKEADGDGEGADIIENNRRARRALYQVKVKTCVASII,42000
